Literature values in US6528620B1, “Sid-polyamide fusions: a potent method of regulating gene expression” (University of Utah Research Foundation, priority 1999, dated 2003).

Legend:
Conditions in all cases: Ayer et al., Cell 80:767-776 (1995); cited from earlier work
PAH3 domain of mSin3A = target: T1, PAH3 domain of mSin3A (Mus musculus, UniProt Q60520)
T1 sequence (Q60520 457-526 limits assumed): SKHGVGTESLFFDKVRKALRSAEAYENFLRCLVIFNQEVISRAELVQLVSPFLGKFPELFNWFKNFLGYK

PAH4 domain of mSin3A = test system: PAH4 domain of mSin3A
PAH1 domain of mSin3A = target: T2, PAH1 domain of mSin3A (Mus musculus, UniProt Q60520)
T2 sequence (Q60520 119-189 limits assumed): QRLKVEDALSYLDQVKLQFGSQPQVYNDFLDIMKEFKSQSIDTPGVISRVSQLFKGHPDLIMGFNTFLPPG

Chain of PAH4 domain of mSin3A (Q60520 889-968 limits assumed): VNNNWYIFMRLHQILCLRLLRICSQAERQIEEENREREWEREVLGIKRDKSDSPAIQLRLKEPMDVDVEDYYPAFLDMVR

B1: Mad1: bHLHZip transcriptional repressor protein of the Mad family (protein)
chain: MAAAVRMNIQMLLEAADYLERREREAEHGYASMLPYNNKDRDALKRRNKSKKNNSSSRSTHNEMEKNRRAHLRLCLEKLKGLVPLGPESSRHTTLSLLTKAKLHIKKLEDCDRKAVHQIDQLQREQRHLKRQLEKLGIERIRMDSIGSTVSSERSDSDREEIDVDVESTDYLTGDLDWSSSSVSDSDERGSMQSLGSDEGYSSTSIKRIKLQDSHKACLGL
modifications: left off: small tags and cut ends
notes: bHLHZip transcriptional repressor protein of the Mad family
no interaction is detected: interaction with PAH3 (PAH3 domain of mSin3A) | interaction with PAH4 (PAH4 domain of mSin3A) | interaction with PAH1 (PAH1 domain of mSin3A)
